This assay concerns the target recombinant rabbit PAPPA (rabbit) (UniProt G1SFH7). The assay can be described thus: SPR, Biacore 8K+, mAb captured on PrismA chip, PAPPA as analyte, 37 C, mean of n=3.

B1: TPP-12744 (antibody, human IgG1, kappa, V domains shown)
VH: QVQLVQSGAEVKKPGASVKVSCKASGYTFTSYAMHWVRQAPGQRLEWMGWMNAGTGATKSSQKFQGRVTITRDTSASTAYMELSSLRSEDTAVYYCARGPSMETPTTFGMDVWGQGTTVTVSS
VL: DIQMTQSPSSVSASVGDRVTITCRASQGISRWLAWYQQKPGKAPKLLIYAASSLQSGVPSRFSGSGSGTDFTLTISSLQPEDFATYYCQQENAYPFTFGGGTKVEIKR
Consider B1, for which the Kd (in general, the concentration at which binding is half-saturated) turned out to be 0.17 nM; the dissociation rate constant (koff) (in general, the rate constant with which the complex falls apart) turned out to be 0.000559 s⁻¹; the kon (as a rule, the second-order rate constant of association) amounted to 3.28e+06 M⁻¹ s⁻¹.

For the origin of these results see US20260226194A1.
